# ± gives the uncertainty stated by the source.
# Assay: self-splicing fitness, log relative to wild type (ln ratio); higher = more splicing; Tetrahymena group I intron in knt gene, E. coli kanamycin selection, DiMSum; sequences stand for … in CUCUCU…GGAGGGAAAAGUUAUCAGGCAUGCACCUGGUAGCUAGUCUUUAAACCAAUAGAUUGCAUCGGUUUAAAAGGCAAGACCGUCAAAUUGCGGGAAAGGGGUCAACAGCCGUUCAGUACCAAGUCUCAGGGGAAACUUUGAGAUGGCCUUGCAAAGGGUAUGGUAAUAAGCUGACGGACAUGGUCCUAACCACGCAGCCAAGUCCUAAGUCAACAGAUCUUCUGUUGAUAUGGAUGCAGUUCACAGACUAAAUGUCGGUCGGGGAAGAUGUAUUCUUCUCAUAAGAUAUAGUCGGACCUCUCCUUAAUGGGAGCUAGCGGAUGAAGUGAUGCAACACUGGAGCCGCUGGGAACUAAUUUGUAUGCGAAAGUAUAUUGAUUAGUUUUGGAGUACUCGUGGUCG
# How it was run: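 Colonies from six replicate transformations of E. coli BL21(DE3) were pooled and amplicon-sequenced on an Illumina HiSeq 2500. The library placed an intron with all eight P1ex-region nucleotides randomised inside the knt kanamycin-resistance gene on pET-22b(+), and cells grew overnight at 37°C or 30°C on LB agar with or without 25 μg/mL kanamycin (plus 100 μg/mL carbenicillin, 50 μM IPTG, 0.2% rhamnose). Fitness is the DiMSum error-weighted combination of wild-type-normalised replicate fold changes, kanamycin versus none.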
Sequence,self-splicing fitness (ln) (30 °C),self-splicing fitness (ln) (37 °C)
AGAGAGCAAUAUUACGUUUC,-2.27 ± 0.21,-1.41 ± 0.23
AGAUAGCAAUAUUACGAAUC,-1.46 ± 0.18,-1.06 ± 0.24
AGAUAGCAAUAUUACGACGC,-0.572 ± 0.16,0.997 ± 0.22
AGAUAGCAAUAUUACGACGG,-2.09 ± 0.2,-1.55 ± 0.25
AGAUAGCAAUAUUACGAGUG,-2.72 ± 0.15,-1.22 ± 0.14
AGAUAGCAAUAUUACGAUAA,-2.02 ± 0.11,-1.16 ± 0.11
AGAUAGCAAUAUUACGAUAG,-2.88 ± 0.21,-2.31 ± 0.18
AGAUAGCAAUAUUACGAUGU,-0.932 ± 0.079,-0.112 ± 0.086
AGAUAGCAAUAUUACGCACC,0.321 ± 0.21,0.267 ± 0.34
AGAUAGCAAUAUUACGCACG,-1.13 ± 0.14,-0.355 ± 0.12
AGAUAGCAAUAUUACGCCCU,-0.337 ± 0.19,0.138 ± 0.21
AGAUAGCAAUAUUACGCCUC,-3.23 ± 0.26,-2.26 ± 0.29
AGAUAGCAAUAUUACGCGCU,-2.31 ± 0.12,-1.44 ± 0.14
AGAUAGCAAUAUUACGCUCA,-0.765 ± 0.087,-0.082 ± 0.11
AGAUAGCAAUAUUACGCUUA,-0.901 ± 0.15,-1.08 ± 0.13
AGAUAGCAAUAUUACGCUUU,-0.847 ± 0.11,-1.2 ± 0.16
AGAUAGCAAUAUUACGGCCG,-0.583 ± 0.13,-0.128 ± 0.23
AGAUAGCAAUAUUACGGGGG,-3.43 ± 0.28,-2.15 ± 0.29
AGAUAGCAAUAUUACGGGUC,-3.73 ± 0.25,-2.36 ± 0.25
AGAUAGCAAUAUUACGGUGC,-4.21 ± 0.31,-0.624 ± 0.15
AGAUAGCAAUAUUACGUCUG,-0.398 ± 0.062,-0.143 ± 0.076
AGAUAGCAAUAUUACGUGAC,-3.44 ± 0.23,-2.71 ± 0.48
AGAUAGCAAUAUUACGUUGG,-4.65 ± 0.46,-2.57 ± 0.2
AGCAAGCAAUAUUACGAAAU,-2.42 ± 0.098,-1.51 ± 0.12

Sequence,self-splicing fitness (ln) (30 °C),self-splicing fitness (ln) (37 °C)
AGCAAGCAAUAUUACGAACG,-0.526 ± 0.083,-0.449 ± 0.1
AGCAAGCAAUAUUACGAAUA,-2.74 ± 0.26,-0.872 ± 0.16
AGCAAGCAAUAUUACGACUC,-1.12 ± 0.072,-0.865 ± 0.08
AGCAAGCAAUAUUACGACUG,-0.672 ± 0.077,-0.735 ± 0.1
AGCAAGCAAUAUUACGAGAA,,-2.27 ± 0.4
AGCAAGCAAUAUUACGAGGG,-3.29 ± 0.1,-2.58 ± 0.15
AGCAAGCAAUAUUACGAGGU,-3.87 ± 0.42,-1.96 ± 0.2
AGCAAGCAAUAUUACGAGUU,-2.98 ± 0.16,-1.55 ± 0.16
AGCAAGCAAUAUUACGAUCG,0.481 ± 0.09,-0.163 ± 0.12
AGCAAGCAAUAUUACGAUUU,-0.00633 ± 0.054,0.677 ± 0.08
AGCAAGCAAUAUUACGGAUA,-3.3 ± 0.28,-1.77 ± 0.19
AGCAAGCAAUAUUACGGGAC,-3.76 ± 0.33,-2.24 ± 0.29
AGCAAGCAAUAUUACGGGAU,-2.79 ± 0.098,-1.15 ± 0.081
AGCAAGCAAUAUUACGGGGC,-3.92 ± 0.29,-2.89 ± 0.3
AGCAAGCAAUAUUACGGGUA,-1.32 ± 0.081,-0.594 ± 0.09
AGCAAGCAAUAUUACGGUCU,-0.739 ± 0.069,0.0318 ± 0.085
AGCAAGCAAUAUUACGGUUA,-0.707 ± 0.08,0.127 ± 0.08
AGCAAGCAAUAUUACGGUUG,-3.23 ± 0.17,-1.32 ± 0.16
AGCAAGCAAUAUUACGUAAC,-5.08 ± 0.25,-2.09 ± 0.14
AGCAAGCAAUAUUACGUAGU,-3.18 ± 0.18,-2.14 ± 0.19
AGCAAGCAAUAUUACGUCCA,-1.62 ± 0.12,0.0058 ± 0.17
AGCAAGCAAUAUUACGUGCC,,-1.63 ± 0.27
AGCAAGCAAUAUUACGUGCG,-1.25 ± 0.069,-1.05 ± 0.087
AGCAAGCAAUAUUACGUGGA,-2.85 ± 0.15,-1.85 ± 0.12
